Source: US20240294569A1, “MODULATORS OF SORTILIN ACTIVITY” (Insusense ApS, priority 2021, published 2024)

Biological target: 6his-Sortilin (human) (UniProt Q99523)
Assay: SPA, displacement of [3H]-neurotensin from 6his-Sortilin

Row | IC50 [nM] | Substance
1 | 180 | (S)-2-((2S,3S)-2-((S)-3-(4-Hydroxyphenyl)-2-((R)-pyrrolidine-3-carboxamido)propanamido)-3-methylpentanamido)-5,5-dimethylhexanoic acid (peptide)
2 | 150 | (S)-2-((2S,3S)-2-((S)-3-(4-Hydroxyphenyl)-2-((S)-pyrrolidine-3-carboxamido)propanamido)-3-methylpentanamido)-5,5-dimethylhexanoic acid (peptide)
3 | 90 | (S)-2-((S)-2-((S)-3-(4-Hydroxyphenyl)-2-((S)-pyrrolidine-2-carboxamido)propanamido)-3-(pyridin-3-yl)propanamido)-5,5-dimethylhexanoic acid (peptide)
4 | 70 | (2S)-5,5-Dimethyl-2-((3S)-3-methyl-2-((S)-2-((S)-pyrrolidine-2-carboxamido)propanamido)pentanamido)hexanoic acid (peptide)
